This data set can be described thus: yeast display, Sf9 membrane polyspecificity reagent, FACS + sequencing; frameworks hold sequencing errors. In a few lines:
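A synthetic nanobody library was expressed on Saccharomyces cerevisiae BJ5465 by galactose induction for 36–48 hours. The library was stained for 1 hour at 4 °C with 10% biotinylated, detergent-solubilized Sf9 membrane reagent and enriched with streptavidin microbeads before FACS. Low and high (top ~1%) gates were set on anti-HA fluorescence for expression and streptavidin fluorescence for reagent binding, and each polyreactivity label reflects the gate of origin.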
Take “QVQLVESGGGLVQAGGSLRLSCAASGFTFDNYTMGWYRQAPGKERELVAAITSSAGSTDYADSVKGRFTISRDNAKNTVYLQMNSLKPEDTAVYYCNDDFLYGTYDYWGQGTQVTVSS”: the “polyreactivity (PSR sort gate)” value is recorded as “low polyreactivity”.
As for “QVQLVESGGGLVQAGGSLRLSCAASGFTFDNYVMGWYRQAPGKERELVAAISKSGTSTYYADSVKGRFTISRDNAKNTVYLQMNSLKPEDTAVSYCAARQYSQEPYDYWGQGTQVTVSS”, the entry is “high polyreactivity”; as for “QVQLVESGGGLVQAGGSLRLSCAASGFTFDPYAIGWYRQAPGKERELVAAISISGGRTYYADSVKGRITISRDNAKNTVYVQMISLKPEDSAVYYCAVAQSHYFGGYGYWGQGTKVTVSS”, “low polyreactivity”.
Consider “QVQLVESGGGLVQAGGSLRLSCAASGFTFDPYAMGWYRQAPGKERELVAAISWIGTNTYYADSVKGRFTISRDNAKNTVYLLMNSLKPEDTAVYYCAADGPTIAVGSYDYWGQGTQVTVSS”, for which the “polyreactivity (PSR sort gate)” value was “low polyreactivity”.
As for “QVQLVESGGGLVQAGGSLRLSCAASGFTFDQYGMGWYRQAPGKERVLVAGISWGGGTTYYADSVKGRFTISRDNAKNTVYLQMNSLKPEDTAVYYCAAVRPGYPYYGSDYWGQGTQVTVSS”, the entry is “low polyreactivity”; as for “QVQLVESGGGLVQAGGSLRLSCAASGFTFDRYAMGWYRQAPGKERELVAAISRSGGSTHYADSVKGRFTISRDNAKNTVYLQMNSLKPEDTAVYYCNKRWFYDGYDYWGQGTQVTVSS”, “high polyreactivity”.
Regarding “QVQLVESGGGLVQAGGSLRLSCAASGFTFDRYAMGWYRQAPGKERELVAAISRSGGSTHYADSVKGRFTISRDNAKNTVYLQMNSLKPEDTAVYYCNKRWYYDGYDYWGQGTQVTVSS”, the “polyreactivity (PSR sort gate)” value is given as “high polyreactivity”.
On to “QVQLVESGGGLVQAGGSLRLSCAASGFTFDSYAMGWYRQAPGKERELVAAITWDGGSTYYADSVKGRFTISRDNAKNTVYLPMNSLKPEDTAVYYCAAVSGFYDQYDYWGQGTQVTVSS”, for which the “polyreactivity (PSR sort gate)” value is “low polyreactivity”.
As for “QVQLVESGGGLVQAGGSLRLSCAASGFTFDSYAMGWYRQAPGKERELVAAITWDGGSTYYADSVKGRFTISRDNAKNTVYLQMNSLKPEDTAVYYCAADFGTISIDVYSWMDYWGQGTQVTVSS”, the entry is “low polyreactivity”; as for “QVQLVESGGGLVQAGGSLRLSCAASGFTFDSYAMGWYRQAPGKERELVAAMSYRGGTTYYADSVKGRFTISRDNAKNTGYLQMNSLKPEDTAVYYCNRLWKYGYNYWGQGTQVTVSS”, “high polyreactivity”.
As to “QVQLVESGGGLVQAGGSLRLSCAASGFTFDSYAMGWYRQAPRKERELVAAITSDGSTYYADSVKGRFTISRDNAKNNVYLQMNSLKAEDTAVYYCAADGISLYATAYDYWGQGTQVTVSS”, the “polyreactivity (PSR sort gate)” value is reported as “low polyreactivity”.
As for “QVQLVESGGGLVQAGGSLRLSCAASGFTFDWNSMGCYRQAPGQERELVATIRWSVGSTYYADSVKGRFTISRDNAKNTVYLQMNSLKPEDTAVYYCAADSQWSYPDYPGEYAYDYWGQGTQVTVSS”, the entry is “low polyreactivity”; as for “QVQLVESGGGLVQAGGSLRLSCAASGFTFDWYAMGWYRQAPGKERELVAAMYYADSVKGRFTISRDNAKNTVYLQMNSLKPEDTAVYYCNAGGYFFPTVYHYGYWGQGTQVTVSS”, “low polyreactivity”.
In the case of “QVQLVESGGGLVQAGGSLRLSCAASGFTFDYNAMGWYRQAPGKDRELVAAISESGGSTYYADSVKGRFTISRDNAKNTVYLQMNSLKPEDTAVYYCPTDFPVYYDYGYWGQGTQVTVSS” it was “high polyreactivity”.
For the sequence “QVQLVESGGGLVQAGGSLRLSCAASGFTFDYNPMGWYRQAPGKERELVAAISNTGDSTYYADSVKGRFTISRDNAKNTDYLQMNSLKPDDTAVYYCAADCLFDVYWEYDYWGQGTQVTVSS”, the “polyreactivity (PSR sort gate)” value is “low polyreactivity”.
As for “QVQLVESGGGLVQAGGSLRLSCAASGFTFDYYAMGWYRQAPGKERELVAVITSRGGSTFYADSVKGRFTISRDNAKNTVYLQMNSLKPEDTAVYYCARQHYRLFRPYDYWGQGTQVTVSS”, the entry is “high polyreactivity”.

Values taken from the nanobody polyreactivity screen of Harvey et al. (2022).
